The series “SEC-MALS” concerns the molecule itself. Briefly: SEC-MALS. For orientation: Size exclusion chromatography separates by hydrodynamic size, large species first.
The series “SEC” concerns the molecule itself. Briefly: SEC.

Positions count from the first letter of the chain named. Names and notes keep the numbering of the source. Values joined by “and” are separate entries in the source; they are usually repeats but may differ in a detail not shown here. Equal entries are not always repeated.

B1: Δ20-27 CtIP-NTD, human CtIP residues 18-145 with residues 20-27 deleted (domain or fragment)
chain: SDKECHDREVQGLQVKVTKLKQERILDAQRLEEFFTKNQQLREQQKVLHETIKVLEDRLRAGLCDRCAVTEEHMRKKQQEFENIRQQNLKLITELMNERNTLQEENKKLSEQLQQKIEND
Consider B1, for which, in the series “SEC-MALS”, the “stoichiometry N” value was 2.

B2: CtIP-cNTD, human CtIP residues 52-145 (domain or fragment)
chain: DAQRLEEFFTKNQQLREQQKVLHETIKVLEDRLRAGLCDRCAVTEEHMRKKQQEFENIRQQNLKLITELMNERNTLQEENKKLSEQLQQKIEND
In the case of B2, the “stoichiometry N” value in “SEC-MALS” was found to be 2.

B3: CtIP-cNTD-DM, C89A C92A double mutant of CtIP residues 52-145 (domain or fragment)
chain: B2 chain with C38A, C41A
As to B3, the “stoichiometry N” value in “SEC-MALS” amounted to 2.

B4: FLAG-tagged full-length wild-type CtIP purified from HEK-293T cells (natural protein)
chain: MNISGSSCGSPNSADTSSDFKDLWTKLKECHDREVQGLQVKVTKLKQERILDAQRLEEFFTKNQQLREQQKVLHETIKVLEDRLRAGLCDRCAVTEEHMRKKQQEFENIRQQNLKLITELMNERNTLQEENKKLSEQLQQKIENDQQHQAAELECEEDVIPDSPITAFSFSGVNRLRRKENPHVRYIEQTHTKLEHSVCANEMRKVSKSSTHPQHNPNENEILVADTYDQSQSPMAKAHGTSSYTPDKSSFNLATVVAETLGLGVQEESETQGPMSPLGDELYHCLEGNHKKQPFEESTRNTEDSLRFSDSTSKTPPQEELPTRVSSPVFGATSSIKSGLDLNTSLSPSLLQPGKKKHLKTLPFSNTCISRLEKTRSKSEDSALFTHHSLGSEVNKIIIQSSNKQILINKNISESLGEQNRTEYGKDSNTDKHLEPLKSLGGRTSKRKKTEEESEHEVSCPQASFDKENAFPFPMDNQFSMNGDCVMDKPLDLSDRFSAIQRQEKSQGSETSKNKFRQVTLYEALKTIPKGFSSSRKASDGNCTLPKDSPGEPCSQECIILQPLNKCSPDNKPSLQIKEENAVFKIPLRPRESLETENVLDDIKSAGSHEPIKIQTRSDHGGCELASVLQLNPCRTGKIKSLQNNQDVSFENIQWSIDPGADLSQYKMDVTVIDTKDGSQSKLGGETVDMDCTLVSETVLLKMKKQEQKGEKSSNEERKMNDSLEDMFDRTTHEEYESCLADSFSQAADEEEELSTATKKLHTHGDKQDKVKQKAFVEPYFKGDERETSLQNFPHIEVVRKKEERRKLLGHTCKECEIYYADMPAEEREKKLASCSRHRFRYIPPNTPENFWEVGFPSTQTCMERGYIKEDLDPCPRPKRRQPYNAIFSPKGKEQKT
Regarding B4, the binding result in “SEC” was “binds”.

On to SDFKDLWTKLKECHDREVQGLQVKVTKLKQERILD (domain or fragment) [CtIP-nNTD, tetramerization domain of human CtIP, residues 18-52], for which the “stoichiometry N” value in the series “SEC-MALS” was found to be 4.

Take SDFKDLWTKLKECHDREVQGLQVKVTKLKQERILD (domain or fragment) [CtIP-nNTD (residues 18-52) fused to a maltose-binding protein (MBP) tag]: the “stoichiometry N” value in “SEC-MALS” is 4.

B5: CtIP N-terminal domain (CtIP-NTD), human CtIP residues 18-145 (domain or fragment)
chain: SDFKDLWTKLKECHDREVQGLQVKVTKLKQERILDAQRLEEFFTKNQQLREQQKVLHETIKVLEDRLRAGLCDRCAVTEEHMRKKQQEFENIRQQNLKLITELMNERNTLQEENKKLSEQLQQKIEND
B5: the “stoichiometry N” value in “SEC-MALS” was found to be 4.

B6: F20E CtIP-NTD, human CtIP residues 18-145 with F20E (domain or fragment)
chain: B5 chain with F3E
For B6, the “stoichiometry N” value in “SEC-MALS” was 2 and 4.

B7: L27E CtIP-NTD, human CtIP residues 18-145 with L27E (domain or fragment)
chain: B5 chain with L10E
For B7, the “stoichiometry N” value in “SEC-MALS” was 2.

B8: CtIP-NTD-DM, C89A C92A double mutant of CtIP residues 18-145 (domain or fragment)
chain: B5 chain with C72A, C75A
B8: in the series “SEC-MALS”, the “stoichiometry N” value was found to be 4.

For orientation: stoichiometry N means a count of units in the complex or per binding partner.

The record behind these values is article PMC4564947 (Nature structural & molecular biology, 2015).
